The source of these data is US9260500B2, “Peptide and use thereof” (Takeda Pharmaceutical Company Limited, priority 2009, dated 2016).

Starred links: 1 amine or outer side, 2 acyl side, 3 side chain; linkers in the order of their positions; H or OH if unused. Non-standard residues stand in square brackets, D forms with d. No end group written: not given here. *: point of attachment. Tyr(Me) = O-methyltyrosine, COc1ccc(C[C@H](N[*:1])C(=O)[*:2])cc1; β‑HOAla = beta-homoalanine, D or L form; tBuAla = CC(C)(C)C[C@H](N)C(=O)O; 4Pal = N[C@@H](Cc1ccncc1)C(=O)O; Cha = N[C@@H](CC1CCCCC1)C(=O)O; dCha = N[C@H](CC1CCCCC1)C(=O)O; Gly(N-CH2CH2OH) = O=C(O)CNCCO; αMeP = C[C@@]1(C(=O)O)CCCN1; Isobutyryl = CC(C)C(=O)*; Iva = CC[C@](C)(N)C(=O)O; Abu = CC[C@H](N)C(=O)O; Aib = CC(C)(N)C(=O)O; Bz = O=C(c1ccccc1)*; Ahx = NCCCCCC(=O)O

Experiment [1] addresses T1, human Y2 receptor (Homo sapiens, UniProt P49146).
T1 construct: expressed in transfected cells; membrane fraction
T1 sequence (P49146 1-381): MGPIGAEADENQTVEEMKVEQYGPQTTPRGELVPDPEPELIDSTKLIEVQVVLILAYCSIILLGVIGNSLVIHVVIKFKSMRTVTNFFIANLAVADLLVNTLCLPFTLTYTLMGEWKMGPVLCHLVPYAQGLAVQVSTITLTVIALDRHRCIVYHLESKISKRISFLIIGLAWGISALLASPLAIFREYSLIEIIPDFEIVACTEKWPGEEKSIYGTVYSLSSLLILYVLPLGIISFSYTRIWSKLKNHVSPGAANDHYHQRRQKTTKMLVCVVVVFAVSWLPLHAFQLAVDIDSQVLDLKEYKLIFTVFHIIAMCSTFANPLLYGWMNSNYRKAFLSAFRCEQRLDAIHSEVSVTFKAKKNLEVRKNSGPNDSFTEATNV
The experiment in a line: Human Y2 Receptor G Protein Binding Assay (GBA), [35S]GTPγS. It is filed as biochemical. To be noted: EC50 of test compound/EC50 of PYY(3-36) (PYY3-36 taken as 1), hY2R/CHO membrane fraction. In outline: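 Agonism measured as [35S]GTPγS binding, read by GF/C filtration and scintillation counting after 120 min at room temperature, using human Y2 membranes at 1 μg protein/mL in pH 7.4 Tris/MgCl2/NaCl/GDP buffer. Compound serially diluted 100 μM–1 nM; EC50 normalized to PYY(3-36) (ratio = compound/PYY).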
(In general: GTPγS is a poorly hydrolysed GTP analogue; its binding reports G protein activation.)

Experiment [2] addresses T1, human Y2 receptor. The experiment in a line: Receptor Binding Assay (RBA) for Human Y2, [125I]-PYY displacement on hY2R/CHO membrane fraction. As to conditions: IC50 of test compound/IC50 of PYY(3-36) (PYY(3-36) taken as 1). The method, boiled down:
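hY2R stably expressed in CHO/dhfr− cells; membrane fraction prepared from cells disrupted in 10 mM NaHCO3, 5 mM EDTA buffer with protease inhibitors. Binding read as displacement of [125I]-PYY.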

Regarding “Benzoyl-[Asn26, Cha27,28,36, Aib31]-PYY(25-36) (Bz-RN[Cha][Cha]NL[Aib]TRQR[Cha]-NH2; SMILES CC(C)C[C@H](NC(=O)[C@H](CC(N)=O)NC(=O)[C@H](CC1CCCCC1)NC(=O)[C@H](CC1CCCCC1)NC(=O)[C@H](CC(N)=O)NC(=O)[C@H](CCCNC(=N)N)NC(=O)c1ccccc1)C(=O)NC(C)(C)C(=O)N[C@H](C(=O)N[C@@H](CCCNC(=N)N)C(=O)N[C@@H](CCC(N)=O)C(=O)N[C@@H](CCCNC(=N)N)C(=O)N[C@@H](CC1CCCCC1)C(N)=O)[C@@H](C)O) [compound No. 99]”, the “GBA EC50 Ratio” value in the experiment with human Y2 receptor [1] came to 21. Besides, in the experiment with human Y2 receptor [2], the “RBA IC50 Ratio” value was found to be 19.
In the case of “Ac-[D-Cha24, Abu26, Cha27,28,36, Aib31]-PYY(24-36) (Ac-[dCha]R[Abu][Cha][Cha]NL[Aib]TRQR[Cha]-NH2; SMILES CC[C@H](NC(=O)[C@H](CCCNC(=N)N)NC(=O)[C@@H](CC1CCCCC1)NC(C)=O)C(=O)N[C@@H](CC1CCCCC1)C(=O)N[C@@H](CC1CCCCC1)C(=O)N[C@@H](CC(N)=O)C(=O)N[C@@H](CC(C)C)C(=O)NC(C)(C)C(=O)N[C@H](C(=O)N[C@@H](CCCNC(=N)N)C(=O)N[C@@H](CCC(N)=O)C(=O)N[C@@H](CCCNC(=N)N)C(=O)N[C@@H](CC1CCCCC1)C(N)=O)[C@@H](C)O) [compound No. 84]”, the “GBA EC50 Ratio” value with human Y2 receptor [1] came out at 13. Besides, the “RBA IC50 Ratio” value with human Y2 receptor [2] was found to be 15.
Taken in the same sequence, the figures for “[N(2-hydroxyethyl)Gly23, D-Pro24, Cha27,28,36, Aib31]-PYY(23-36) ([Gly(N-CH2CH2OH)][dP]RH[Cha][Cha]NL[Aib]TRQR[Cha]-NH2; N-terminus assumed; SMILES CC(C)C[C@H](NC(=O)[C@H](CC(N)=O)NC(=O)[C@H](CC1CCCCC1)NC(=O)[C@H](CC1CCCCC1)NC(=O)[C@H](Cc1c[nH]cn1)NC(=O)[C@H](CCCNC(=N)N)NC(=O)[C@H]1CCCN1C(=O)CNCCO)C(=O)NC(C)(C)C(=O)N[C@H](C(=O)N[C@@H](CCCNC(=N)N)C(=O)N[C@@H](CCC(N)=O)C(=O)N[C@@H](CCCNC(=N)N)C(=O)N[C@@H](CC1CCCCC1)C(N)=O)[C@@H](C)O) [compound No. 134]” were 1.2 and 2.0.
Turning to “Ac-[D-Pro24, Tyr(Me)26, Cha27,36, Aib28,31, Lys30]-PYY(23-36) (Ac-S[dP]R[Tyr(Me)][Cha][Aib]NK[Aib]TRQR[Cha]-NH2; SMILES COc1ccc(C[C@H](NC(=O)[C@H](CCCNC(=N)N)NC(=O)[C@H]2CCCN2C(=O)[C@H](CO)NC(C)=O)C(=O)N[C@@H](CC2CCCCC2)C(=O)NC(C)(C)C(=O)N[C@@H](CC(N)=O)C(=O)N[C@@H](CCCCN)C(=O)NC(C)(C)C(=O)N[C@H](C(=O)N[C@@H](CCCNC(=N)N)C(=O)N[C@@H](CCC(N)=O)C(=O)N[C@@H](CCCNC(=N)N)C(=O)N[C@@H](CC2CCCCC2)C(N)=O)[C@@H](C)O)cc1) [compound No. 348]”, in the experiment with human Y2 receptor [1], the “GBA EC50 Ratio” value is recorded as 1.4. Further, the “RBA IC50 Ratio” value in the experiment with human Y2 receptor [2] came to 0.88.
For the substance “Ac-[αMePro24, Cha27,28,36, Aib31]-PYY(23-36) (Ac-S[αMeP]RH[Cha][Cha]NL[Aib]TRQR[Cha]-NH2; SMILES CC(=O)N[C@@H](CO)C(=O)N1CCC[C@@]1(C)C(=O)N[C@@H](CCCNC(=N)N)C(=O)N[C@@H](Cc1c[nH]cn1)C(=O)N[C@@H](CC1CCCCC1)C(=O)N[C@@H](CC1CCCCC1)C(=O)N[C@@H](CC(N)=O)C(=O)N[C@@H](CC(C)C)C(=O)NC(C)(C)C(=O)N[C@H](C(=O)N[C@@H](CCCNC(=N)N)C(=O)N[C@@H](CCC(N)=O)C(=O)N[C@@H](CCCNC(=N)N)C(=O)N[C@@H](CC1CCCCC1)C(N)=O)[C@@H](C)O) [compound No. 154]”, the “GBA EC50 Ratio” value with human Y2 receptor [1] came to 1.3. Also, the “RBA IC50 Ratio” value in the experiment with human Y2 receptor [2] is listed as 2.8.
Turning to “Isobutanoyl-[Abu26, Cha27,28,36, Leu(Me)30, Aib31]-PYY(25-36) (Isobutyryl-R[Abu][Cha][Cha]N[tBuAla][Aib]TRQR[Cha]-NH2; SMILES CC[C@H](NC(=O)[C@H](CCCNC(=N)N)NC(=O)C(C)C)C(=O)N[C@@H](CC1CCCCC1)C(=O)N[C@@H](CC1CCCCC1)C(=O)N[C@@H](CC(N)=O)C(=O)N[C@@H](CC(C)(C)C)C(=O)NC(C)(C)C(=O)N[C@H](C(=O)N[C@@H](CCCNC(=N)N)C(=O)N[C@@H](CCC(N)=O)C(=O)N[C@@H](CCCNC(=N)N)C(=O)N[C@@H](CC1CCCCC1)C(N)=O)[C@@H](C)O) [compound No. 81]”, the “GBA EC50 Ratio” value with human Y2 receptor [1] is on record as 26. The “RBA IC50 Ratio” value with human Y2 receptor [2] is reported as 51.
With “Ac-[D-Pro24, Iva25, Cha27,28,36, Aib31]-PYY(23-36) (Ac-S[dP][Iva]H[Cha][Cha]NL[Aib]TRQR[Cha]-NH2; SMILES CC[C@](C)(NC(=O)[C@H]1CCCN1C(=O)[C@H](CO)NC(C)=O)C(=O)N[C@@H](Cc1c[nH]cn1)C(=O)N[C@@H](CC1CCCCC1)C(=O)N[C@@H](CC1CCCCC1)C(=O)N[C@@H](CC(N)=O)C(=O)N[C@@H](CC(C)C)C(=O)NC(C)(C)C(=O)N[C@H](C(=O)N[C@@H](CCCNC(=N)N)C(=O)N[C@@H](CCC(N)=O)C(=O)N[C@@H](CCCNC(=N)N)C(=O)N[C@@H](CC1CCCCC1)C(N)=O)[C@@H](C)O) [compound No. 177]”, in the experiment with human Y2 receptor [1], the “GBA EC50 Ratio” value was found to be 3.7. The “RBA IC50 Ratio” value with human Y2 receptor [2] is 4.5.
Taken in the same sequence, the figures for “Ac-[β-HOAla24, Pya(4)26, Cha27,36, Aib28,31, Lys30]-PYY(23-36) [compound No. 245] (Ac-S[β‑HOAla]R[4Pal][Cha][Aib]NK[Aib]TRQR[Cha]-NH2; also: β-HOAla at position 2: D or L form not settled)” were 1.9 and 0.85.
Turning to “Ac-[D-Pro24, Aib25,28,31, Cha27,36, Lys30]-PYY(23-36) (Ac-S[dP][Aib]H[Cha][Aib]NK[Aib]TRQR[Cha]-NH2; SMILES CC(=O)N[C@@H](CO)C(=O)N1CCC[C@@H]1C(=O)NC(C)(C)C(=O)N[C@@H](Cc1c[nH]cn1)C(=O)N[C@@H](CC1CCCCC1)C(=O)NC(C)(C)C(=O)N[C@@H](CC(N)=O)C(=O)N[C@@H](CCCCN)C(=O)NC(C)(C)C(=O)N[C@H](C(=O)N[C@@H](CCCNC(=N)N)C(=O)N[C@@H](CCC(N)=O)C(=O)N[C@@H](CCCNC(=N)N)C(=O)N[C@@H](CC1CCCCC1)C(N)=O)[C@@H](C)O) [compound No. 238]”, in the experiment with human Y2 receptor [1], the “GBA EC50 Ratio” value is recorded as 11. Also, in the experiment with human Y2 receptor [2], the “RBA IC50 Ratio” value turned out to be 24.
Taken in the same sequence, the figures for “[Acp23, D-Pro24, Pya(4)26, Cha27,36, Aib28,31, Lys30]-PYY(23-36) (Ac-[Ahx][dP]R[4Pal][Cha][Aib]NK[Aib]TRQR[Cha]-NH2) [compound No. 304]” were 1.1 and 0.32.
For “Isobutanoyl-[Glu23, D-Pro24, Pya(4)26, Cha27,36, Leu(Me)28, Lys30, Aib31]-PYY(23-36) (Isobutyryl-E[dP]R[4Pal][Cha][tBuAla]NK[Aib]TRQR[Cha]-NH2; SMILES CC(C)C(=O)N[C@@H](CCC(=O)O)C(=O)N1CCC[C@@H]1C(=O)N[C@@H](CCCNC(=N)N)C(=O)N[C@@H](Cc1ccncc1)C(=O)N[C@@H](CC1CCCCC1)C(=O)N[C@@H](CC(C)(C)C)C(=O)N[C@@H](CC(N)=O)C(=O)N[C@@H](CCCCN)C(=O)NC(C)(C)C(=O)N[C@H](C(=O)N[C@@H](CCCNC(=N)N)C(=O)N[C@@H](CCC(N)=O)C(=O)N[C@@H](CCCNC(=N)N)C(=O)N[C@@H](CC1CCCCC1)C(N)=O)[C@@H](C)O) [compound No. 170]” the same measures were 0.88 and 0.43.
Taken in the same sequence, the figures for “Ac-[D-Pro24, Cha27,28,36, Iva30, Aib31]-PYY(23-36) (Ac-S[dP]RH[Cha][Cha]N[Iva][Aib]TRQR[Cha]-NH2; SMILES CC[C@](C)(NC(=O)[C@H](CC(N)=O)NC(=O)[C@H](CC1CCCCC1)NC(=O)[C@H](CC1CCCCC1)NC(=O)[C@H](Cc1c[nH]cn1)NC(=O)[C@H](CCCNC(=N)N)NC(=O)[C@H]1CCCN1C(=O)[C@H](CO)NC(C)=O)C(=O)NC(C)(C)C(=O)N[C@H](C(=O)N[C@@H](CCCNC(=N)N)C(=O)N[C@@H](CCC(N)=O)C(=O)N[C@@H](CCCNC(=N)N)C(=O)N[C@@H](CC1CCCCC1)C(N)=O)[C@@H](C)O) [compound No. 202]” were 20 and 43.
As for “Ac-[D-Pro24, Cit25, Pya(4)26, Cha27,36, Aib28,31, Lys30]-PYY(23-36) [compound No. 225]”, the “GBA EC50 Ratio” value with human Y2 receptor [1] is listed as 2.2. Further, in the experiment with human Y2 receptor [2], the “RBA IC50 Ratio” value amounted to 2.8.
Take “Isobutanoyl-[Abu26, Cha27,36, Pya(4)28, Aib31]-PYY(25-36) (Isobutyryl-R[Abu][Cha][4Pal]NL[Aib]TRQR[Cha]-NH2; SMILES CC[C@H](NC(=O)[C@H](CCCNC(=N)N)NC(=O)C(C)C)C(=O)N[C@@H](CC1CCCCC1)C(=O)N[C@@H](Cc1ccncc1)C(=O)N[C@@H](CC(N)=O)C(=O)N[C@@H](CC(C)C)C(=O)NC(C)(C)C(=O)N[C@H](C(=O)N[C@@H](CCCNC(=N)N)C(=O)N[C@@H](CCC(N)=O)C(=O)N[C@@H](CCCNC(=N)N)C(=O)N[C@@H](CC1CCCCC1)C(N)=O)[C@@H](C)O) [compound No. 83]”: the “GBA EC50 Ratio” value in the experiment with human Y2 receptor [1] was found to be 22. Further, in the experiment with human Y2 receptor [2], the “RBA IC50 Ratio” value was determined as 26.
